# Measured values as given in US20260250410A1, “ANTIBODY AND USE THEREOF” (SICHUAN HUIYU PHARMACEUTICAL CO., LTD., priority 2022, published 2026).
# T1: HuCDCP1-C (Homo sapiens, UniProt Q9H5V8)
# T1 construct: made in house; host or cells: HEK-293T
# T1 sequence (Q9H5V8 30-667): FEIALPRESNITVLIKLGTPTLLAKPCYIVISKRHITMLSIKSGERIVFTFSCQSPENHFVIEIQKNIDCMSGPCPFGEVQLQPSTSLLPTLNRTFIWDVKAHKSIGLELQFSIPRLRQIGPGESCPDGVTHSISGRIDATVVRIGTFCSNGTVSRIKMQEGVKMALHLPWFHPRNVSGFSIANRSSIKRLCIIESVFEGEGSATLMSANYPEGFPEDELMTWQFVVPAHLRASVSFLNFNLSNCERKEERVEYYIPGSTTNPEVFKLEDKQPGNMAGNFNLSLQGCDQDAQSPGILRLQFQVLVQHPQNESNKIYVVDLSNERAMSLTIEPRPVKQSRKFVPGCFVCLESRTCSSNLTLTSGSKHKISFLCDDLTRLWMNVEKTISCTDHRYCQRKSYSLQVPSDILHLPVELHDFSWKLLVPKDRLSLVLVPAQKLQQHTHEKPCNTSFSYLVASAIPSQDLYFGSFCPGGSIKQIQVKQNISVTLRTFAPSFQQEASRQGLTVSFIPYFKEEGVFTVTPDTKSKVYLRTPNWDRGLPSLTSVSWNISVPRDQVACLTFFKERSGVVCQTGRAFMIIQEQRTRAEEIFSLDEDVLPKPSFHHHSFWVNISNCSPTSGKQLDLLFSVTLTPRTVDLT
# B1: 1CP-118: humanized anti-CDCP1 antibody produced by 8E5; VH SEQ ID NO: 349, VL SEQ ID NO: 358 (antibody, V domains shown)
# VH: QVQLVQSGSELKKPGESVKVSCKASGYTLTDFSMHWVRQAPGQGLEWMGWINTETGAPTYADDFKGRFVLSLDTSVSTAYLQISSLKSEDTAVYYCSRGRDYDPHFDYWGQGTLVTVSS
# VL: EIVLTQSPATLSLSPGERATLSCRASQSISDFLHWYQQKPGQSPRLLIKYASQSISGIPARFSGSGSGSDFTLTISSVEPEDFAVYYCQSAHSFPYTFGQGTKLEIK
# modifications: humanized antibody 8E5 heavy chain variable region 03; humanized antibody 8E5 light chain variable region 02
# B2: 1CP-119: humanized anti-CDCP1 antibody produced by 8E5; VH SEQ ID NO: 350, VL SEQ ID NO: 358 (antibody, V domains shown)
# VH: QVQLQQSGSELKKPGESVKLSCKASGYTLTDFSMHWVRQAPGQGLKWMGWINTETGAPTYADDFKGRFVFSLDTSVSMAYLQISSLKSEDTAVYYCSRGRDYDPHFDYWGQGTLVTVSS
# VL: EIVLTQSPATLSLSPGERATLSCRASQSISDFLHWYQQKPGQSPRLLIKYASQSISGIPARFSGSGSGSDFTLTISSVEPEDFAVYYCQSAHSFPYTFGQGTKLEIK
# modifications: humanized antibody 8E5 heavy chain variable region 04; humanized antibody 8E5 light chain variable region 02
# B3: 1CP-120: humanized anti-CDCP1 antibody produced by 8E5; VH SEQ ID NO: 347, VL SEQ ID NO: 359 (antibody, V domains shown)
# VH: QVQLVQSGSELKKPGASVKVSCKASGYTLTDFSMHWVRQAPGQGLEWMGWINTETGAPTYADDFKGRFVFSLDTSVSTAYLQISSLKAEDTAVYYCSRGRDYDPHFDYWGQGTLVTVSS
# VL: EIVLTQSPATLSLSPGERATLSCRASQSISDFLHWYQQKSGQSPRLLIKYASQSISGIPARFSGSGSGSDFTLTISSVEPEDFAVYYCQSAHSFPYTFGQGTKLEIK
# modifications: humanized antibody 8E5 heavy chain variable region 01; humanized antibody 8E5 light chain variable region 03
# B4: 1CP-122: humanized anti-CDCP1 antibody produced by 8E5; VH SEQ ID NO: 349, VL SEQ ID NO: 359 (antibody, V domains shown)
# VH: QVQLVQSGSELKKPGESVKVSCKASGYTLTDFSMHWVRQAPGQGLEWMGWINTETGAPTYADDFKGRFVLSLDTSVSTAYLQISSLKSEDTAVYYCSRGRDYDPHFDYWGQGTLVTVSS
# VL: EIVLTQSPATLSLSPGERATLSCRASQSISDFLHWYQQKSGQSPRLLIKYASQSISGIPARFSGSGSGSDFTLTISSVEPEDFAVYYCQSAHSFPYTFGQGTKLEIK
# modifications: humanized antibody 8E5 heavy chain variable region 03; humanized antibody 8E5 light chain variable region 03
# B5: 1CP-123: humanized anti-CDCP1 antibody produced by 8E5; VH SEQ ID NO: 350, VL SEQ ID NO: 359 (antibody, V domains shown)
# VH: QVQLQQSGSELKKPGESVKLSCKASGYTLTDFSMHWVRQAPGQGLKWMGWINTETGAPTYADDFKGRFVFSLDTSVSMAYLQISSLKSEDTAVYYCSRGRDYDPHFDYWGQGTLVTVSS
# VL: EIVLTQSPATLSLSPGERATLSCRASQSISDFLHWYQQKSGQSPRLLIKYASQSISGIPARFSGSGSGSDFTLTISSVEPEDFAVYYCQSAHSFPYTFGQGTKLEIK
# modifications: humanized antibody 8E5 heavy chain variable region 04; humanized antibody 8E5 light chain variable region 03
# B6: 1CP-127: humanized anti-CDCP1 antibody produced by 3C11; VH SEQ ID NO: 342, VL SEQ ID NO: 351 (antibody, V domains shown)
# VH: QVQLVQSGAEVKKPGASVKVSCKASGYNFISYWLHWVRQAPGQGLEWMGGIYPGNTDTTYNQKFKGRVTVTAVTSTSTVYMELSSLRSEDTAVYYCIRYDYDRGMDYWGQGTLVTVSS
# VL: DIQMTQSPSSLSASVGDRVTITCRASEDIYYRLAWYQQKPGKAPKLLISGATALETGVPSRFSGSGSGKDYTFTISSLQPEDIATYYCQHYWNIPWTFGQGTKVEIK
# modifications: humanized antibody 3C11 heavy chain variable region 04; humanized antibody 3C11 light chain variable region 01
# B7: 1CP-131: humanized anti-CDCP1 antibody produced by 3C11; VH SEQ ID NO: 342, VL SEQ ID NO: 352 (antibody, V domains shown)
# VH: QVQLVQSGAEVKKPGASVKVSCKASGYNFISYWLHWVRQAPGQGLEWMGGIYPGNTDTTYNQKFKGRVTVTAVTSTSTVYMELSSLRSEDTAVYYCIRYDYDRGMDYWGQGTLVTVSS
# VL: DIQMTQSPSSLSASVGDRVTITCRASEDIYYRLAWYQQKPGKAPKLLISGATALETGVPSRFSGSGSGKDYTLTISSLQPEDIATYYCQHYWNIPWTFGQGTKVEIK
# modifications: humanized antibody 3C11 heavy chain variable region 04; humanized antibody 3C11 light chain variable region 02
# B8: 1CP-132: humanized anti-CDCP1 antibody produced by 3C11; VH SEQ ID NO: 339, VL SEQ ID NO: 353 (antibody, V domains shown)
# VH: QVQLVQSGAEVKKPGASVKVSCKASGYNFISYWLHWVRQAPGQGLEWMGGIYPGNTDTTYNQKFKGRVTMTRDTSTSTVYMELSSLRSEDTAVYYCIRYDYDRGMDYWGQGTLVTVSS
# VL: DIQMTQSPSSLSASVGDRVTITCRASEDIYYRLAWYQQKPGNAPKLLISGATALETGVPSRFSGSGSGKDYTLTISSLQPEDIATYYCQHYWNIPWTFGQGTKVEIK
# modifications: humanized antibody 3C11 heavy chain variable region 01; humanized antibody 3C11 light chain variable region 03
# B9: 1CP-133: humanized anti-CDCP1 antibody produced by 3C11; VH SEQ ID NO: 340, VL SEQ ID NO: 353 (antibody, V domains shown)
# VH: QVQLVQSGAEVKKPGASVKVSCKASGYNFISYWLHWVRQAPGQGLEWMGGIYPGNTDTTYNQKFKGRVTMTADTSTSTVYMELSSLRSEDTAVYYCIRYDYDRGMDYWGQGTLVTVSS
# VL: DIQMTQSPSSLSASVGDRVTITCRASEDIYYRLAWYQQKPGNAPKLLISGATALETGVPSRFSGSGSGKDYTLTISSLQPEDIATYYCQHYWNIPWTFGQGTKVEIK
# modifications: humanized antibody 3C11 heavy chain variable region 02; humanized antibody 3C11 light chain variable region 03
# B10: 1CP-135: humanized anti-CDCP1 antibody produced by 3C11; VH SEQ ID NO: 342, VL SEQ ID NO: 353 (antibody, V domains shown)
# VH: QVQLVQSGAEVKKPGASVKVSCKASGYNFISYWLHWVRQAPGQGLEWMGGIYPGNTDTTYNQKFKGRVTVTAVTSTSTVYMELSSLRSEDTAVYYCIRYDYDRGMDYWGQGTLVTVSS
# VL: DIQMTQSPSSLSASVGDRVTITCRASEDIYYRLAWYQQKPGNAPKLLISGATALETGVPSRFSGSGSGKDYTLTISSLQPEDIATYYCQHYWNIPWTFGQGTKVEIK
# modifications: humanized antibody 3C11 heavy chain variable region 04; humanized antibody 3C11 light chain variable region 03
# B11: 1CP-151: humanized anti-CDCP1 antibody produced by 8C9; VH SEQ ID NO: 343, VL SEQ ID NO: 354 (antibody, V domains shown)
# VH: EVQLVESGGGLVQPGRSLRLSCTASGLTFTHYHMSWFRQAPGKGLEWVAIIRNKAYGYTTDYSASVRGRFTISRDDSKSILYLQMNSLKTEDTAVYYCVREGGYGYDGTFAYWGQGTLVTVSS
# VL: DIQMTQSPSSLSASVGDRVTITCRASESVDNYGISFMNWFQQKPGQAPKLLIYAASNQGSGVPSRFSGSGSGTDFTLTISSMQPEDFATYYCQQSKEVPRTFGGGTKVEIK
# modifications: humanized antibody 8C9 heavy chain variable region 01; humanized antibody 8C9 light chain variable region 01
# Target: T1, HuCDCP1-C
# Assay: Caterra affinity of humanized anti-CDCP1 antibodies
# Format: binding
# Conditions: HuCDCP1-C 2 μg/ml immobilized
# Method: The humanized anti-CDCP1 antibodies obtained from Example 11 were subjected to gene cloning, constructed into pTT5 expression vector for a small amount of expression in CHO cells (Expi-CHOS: Gibco A29127), and purified with an Fc affinity column (AT Protein A Diamond Plus. No. AA402312). Antibody purity was analyzed by HPLC and determined by Nanodrop. High-throughput affinity assay was carried out for a small amount of antibodies by Caterra.
ka,kd,Molecule
168000 M⁻¹ s⁻¹,0.00225 s⁻¹,B1
226000 M⁻¹ s⁻¹,0.00124 s⁻¹,B2
139000 M⁻¹ s⁻¹,1.7e-05 s⁻¹,B3
167000 M⁻¹ s⁻¹,0.00209 s⁻¹,B4
199000 M⁻¹ s⁻¹,0.00227 s⁻¹,B5
205000 M⁻¹ s⁻¹,0.00198 s⁻¹,B6
191000 M⁻¹ s⁻¹,0.002 s⁻¹,B7
140000 M⁻¹ s⁻¹,1e-05 s⁻¹,B8
183000 M⁻¹ s⁻¹,1e-05 s⁻¹,B9
249000 M⁻¹ s⁻¹,0.0012 s⁻¹,B10
158000 M⁻¹ s⁻¹,0.00302 s⁻¹,B11
